T1: Boi1 SH3 (BOI1_YEAST), P38041
T1 chain: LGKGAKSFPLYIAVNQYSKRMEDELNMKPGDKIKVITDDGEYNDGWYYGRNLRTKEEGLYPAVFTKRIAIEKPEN

T2: Yhr016c SH3 (YSC84_YEAST), P32793
T2 chain: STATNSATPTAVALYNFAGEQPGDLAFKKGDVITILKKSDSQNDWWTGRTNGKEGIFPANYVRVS

T3: Boi2 SH3 (BOI2_YEAST), P39969
T3 chain: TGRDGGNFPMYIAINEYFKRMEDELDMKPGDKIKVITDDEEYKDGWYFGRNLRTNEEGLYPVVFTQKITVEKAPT

T4: Yfr024 SH3 (LSB3_YEAST), P43603
T4 chain: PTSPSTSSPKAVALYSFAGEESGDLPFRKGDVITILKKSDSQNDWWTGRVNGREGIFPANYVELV

T5: Rvs167 SH3 (RV167_YEAST), P39743
T5 chain: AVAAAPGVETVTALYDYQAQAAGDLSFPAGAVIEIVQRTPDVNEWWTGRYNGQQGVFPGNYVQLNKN


Tests used:
Assay in all cases: SPOT array
[1] = target: T1, Boi1 SH3 (BOI1_YEAST), P38041
[2] = target: T2, Yhr016c SH3 (YSC84_YEAST), P32793
[3] = target: T3, Boi2 SH3 (BOI2_YEAST), P39969
[4] = target: T4, Yfr024 SH3 (LSB3_YEAST), P43603
[5] = target: T5, Rvs167 SH3 (RV167_YEAST), P39743

normalised SPOT signal, Boehringer light units (BLU); mean over the file's lines of this peptide [1]	normalised SPOT signal, Boehringer light units (BLU); mean over the file's lines of this peptide [2]	normalised SPOT signal, Boehringer light units (BLU); mean over the file's lines of this peptide [3]	normalised SPOT signal, Boehringer light units (BLU); mean over the file's lines of this peptide [4]	normalised SPOT signal, Boehringer light units (BLU); mean over the file's lines of this peptide [5]	Binder
46400	97900	10000	49400	77800	SASPTLPTRRSRRL [YDL156W 62-75]
94.4	46.4	77.6	94.3	51.8	SDTPASPSKVQSFD [YMR182C 187-200]
32.5	303	26.6	52.2	40.3	SEEPTSPTRQVNPE [YER032W 443-456]
138	375	39.8	4580	20.6	SELPTRPSKSKTYN [YNL139C 1447-1460]
54.4	158	38.8	196	24.9	SENPLLPEKLSQSK [YNR016C 154-167]
1670	0	37.1	440	15.8	SELPKSPYRQKPTQ [YHR184W 124-137]
514	543	105	2420	67.3	SASPYRPQRLPAKF [YDL033C 13-26]
110	377	53.6	150	100	SDKPLTPTKTSSTL [YER143W 341-354]
41.3	50.7	59.9	8.4	27.8	SDLPSSPIKAPNVE [YHR164C 232-245]

Reference: PMC314469, “Protein Interaction Networks by Proteome Peptide Scanning” (PLoS Biology, 2004)
